Results on one molecule are retold here after US7910549.

The IC50 is the concentration that inhibits the measured activity by half. The low end stands for higher potency, the high end for lower potency.

This assay has as its target monoclonal antibody M75 (MAb M75), secreted by hybridoma VU-M75, ATCC HB 11128. The assay can be described thus: competition ELISA (peptide against immobilized GST-MN for M75). In general terms: An ELISA detects its analyte on a solid surface through an enzyme-linked reagent.

For the molecule GGSSGEDDPLGEEDLPSEEDSP [oligopeptide … (aa 51-72) [SEQ ID NO: 104]], the IC50 was 1 ng/mL.
